Laboratory results taken from patent publication US20230303666A1 (published 2023).

B1: SR6c3 (VHH)
VHH: EVQLVESGGGLVQAGDSLRLSCAASGDCHVLWRMGWFRQAPGKEREFVAAISLDGQFTNYADSVRGRFSISADSAKNTVYLQMNSLKPEDTAVYYCAALPFLDYWGQGTQVTVSS
B2: SR6v15.d (VHH)
chain: EVQLVESGGGLVQAGDSLRLSCAASGDSYILWRMGWFRQAPGKEREFVAAISLDGQFTNYADSVRGRFSISADSAKYTVYLQMNSLKPEDTAVYYCAALPFLDYWGQGTQVTVSSEVQLVESGGGLVQAGDSLRLSCAASGDSYILWRMGWFRQAPGKEREFVAAISLDGQFTNYADSVRGRFSISADSAKYTVYLQMNSLKPEDTAVYYCAALPFLDYWGQGTQVTVSS

Target: SARS-CoV-2 S on pseudotyped lentivirus (pCMV-SARS2deltaC-gp41) (SARS-CoV-2, UniProt P0DTC2 14-1246)
Assay: cell-based or functional assay

Row | Binder | IC50 of neutralization of pseudotyped lentiviral infection | IC50 of pseudovirus neutralization | pseudovirus neutralization potency, fold increase against monomeric SR6v15
1 | B1 | 62.7 nM |  | 
2 | B2 |  | 0.329 nM | > 10 fold
